± gives the half width of the 95% confidence interval.
Assays:
[1] = folding stability dG unfold from chymotrypsin proteolysis; higher = more stable
Method in brief: (§1)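 Mini-proteins designed to be under 80 residues and free of cysteine were carried in a PA-tagged cDNA display construct and digested with trypsin and with chymotrypsin. Each protease was applied at 11 threefold-diluted concentrations, alongside a no-protease condition, before sequencing. K50 came from Bayesian fitting of the sequencing counts, and unfolding free energy was obtained by comparing it with a sequence-predicted unfolded-state K50 and a shared folded-state K50, for each protease separately or for both together. Designs were retained only if their AlphaFold2 dimer inter-PAE exceeded 15.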

[2] = folding stability dG unfold (combined trypsin and chymotrypsin); higher = more stable
Method in brief: as §1

[3] = folding stability dG unfold from trypsin proteolysis; higher = more stable
Method in brief: as §1

| Sequence | folding stability dG unfold [1] [kcal/mol] | folding stability dG unfold [2] [kcal/mol] | folding stability dG unfold [3] [kcal/mol] |
| --- | --- | --- | --- |
| SAGGLIEAIKEAIDQAPPGDEEVTIPIRFPNGTFVIEIRREKDKYKIEIEMQNPNGQKQEITITIEVSAGGS [r16_642_TrROS] | 1.69 ± 0.089 | 1.65 ± 0.12 | 1.43 ± 0.091 |
| SAGGSAGGSMTLVLEVDSVEDALAAVEALLPPGYRVTIEVEERGGRLLVTITIEPAPAPPPEESAGGSAGGS [r12_195_TrROS_Hall] | 3.51 ± 0.075 | 3.16 ± 0.071 | 1.92 ± 0.083 |
| SMILDVPGEQLDEALAEIRAAVAAGAPPVTIRMKLSPEDLKKAKAAFEALGMTVTPLPEPGVWEFTVELRSA [r9_600_JUSTAS] | 3.366 ± 0.017 | 3.27 ± 0.065 | 3.08 ± 0.043 |
| SAGGMPPGSFRVRARRPVPLFVRVRLPNDPDVTVTFPVTVPAELELPVNSPEALEALREAGFEIEPASAGGS [r8_482_TrMRF] | 0.114 ± 0.33 | 0.357 ± 0.18 | 0.608 ± 0.14 |
| SAGGSAGGSAAKVISVNPETGEVVVEYPDGSVGYFKVKGGVVEEVRSSPVLPVPEDDPLFTSAGGSAGGSAG [r3_406_TrMRF] | 1.2 ± 0.088 | 1.15 ± 0.077 | 1.05 ± 0.032 |
| SAGGSAGGSAGGMVTATVTEYQPGEGLLTVKPPDGSTITIAVPPSVSYEELKNTTIDLSLSAGGSAGGSAGG [r7_296_JUSTAS] | 0.021 ± 0.072 | 0.714 ± 0.066 | 1.09 ± 0.036 |
| SAGGSAGGSTVEEELLEKAAAAHPPGTTLTVDVVIVDPNNPVPIGTRTVTITVNADGSYTVVDSAGGSAGGS [r20_151_JUSTAS] | 2.65 ± 0.054 | 2.46 ± 0.09 | 2.18 ± 0.07 |
| SAGGSAGGSAGNSVTILPIPETDKYLVVVSDNSGKFTVFDVDSSDLEDVVKALPSNYTVTSAGGSAGGSAGG [r11_569_TrMRF] | 1.13 ± 0.051 | 1.04 ± 0.048 | 0.881 ± 0.025 |
| SAGGSAGGSGSMEFTIDDEDLRIEIKFLPGGKVEITIWDPTNNVPLKTIETEPEEIEEVIEKLSAGGSAGGS [r20_129_JUSTAS] | 2.05 ± 0.048 | 2.15 ± 0.082 | 2.18 ± 0.17 |
| MKIEIEIEREEDRVIVRIKIERKDGKEIELELEVPSLEEALEAIEKILASLPPEEVKIVEIEIYNADGEKIS [r1_169_TrROS_Hall] | 1.85 ± 0.086 | 2.21 ± 0.2 | 2.53 ± 0.14 |
| SMKPGETVTLEVVIRVKKENMTLEEIAEEVANAIKALLPPGAKITIEVVDIEYDEETDEVYVKLKITIENSA [r9_706_TrROS_Hall] | 2.64 ± 0.23 | 3.01 ± 0.32 | 4.17 ± 0.28 |
| SAGGSAGGSAGGPMEPIELTFMIPHPNGHPIVAKTEIWRMKNGFFIKPEIYNPDGNPIPSAGGSAGGSAGGS [r10_1056_TrROS] | -0.377 ± 0.3 | -0.207 ± 0.18 | -0.153 ± 0.25 |
| SAGGMVKVLKVETYPGTGEVIVTMELPGNTVATVRIPRAPDAPLTVSPDGVVTVPTAPVTELETTAPSAGGS [r16_515_JUSTAS] | 0.591 ± 0.054 | 0.322 ± 0.049 | -0.276 ± 0.053 |
| SAGGSAGGSAGGMTLEELKNLKPGEEVEIEIEVYDKNGKKVSKYRIRIYNDKIEIEKLPSAGGSAGGSAGGS [r10_394_TrROS_Hall] | 2.991 ± 0.026 | 2.71 ± 0.092 | 2.4 ± 0.057 |
| PETVTLTVEIEIEVRGPDGKPLTPEQVEELAKALAEELAAELGLEVEVTVTVEPVGPDGKYRITVTVTIRPS [r1_231_TrROS_Hall] | 5.69 ± 0.86 | > 6 | 4.45 ± 0.34 |
| SAGGSAGGSAGGEAFEVERVELVLDPETGTPYLLVYFRDGRVLVYDLPRGTWRVVPAEELSAGGSAGGSAGG [r11_922_TrMRF] | 3.06 ± 0.076 | 2.81 ± 0.065 | 2.21 ± 0.049 |
| SAGGGMMWTVTFYPKETDTPITFPVPKEYITEIDEENNKIVIKKPPGETIEITDFNKIKSIEITPLPSAGGS [r8_111_JUSTAS] | 0.528 ± 0.18 | 0.586 ± 0.15 | 0.541 ± 0.04 |
| SAGGSVIVKLPNGKILEVSPSELAGYKPGAAVKFPDGTAQVVNPETDEVIDIPIDSPEKIIEAIKKAASAGG [r13_962_TrMRF] | 0.365 ± 0.077 | 0.163 ± 0.24 | 0.0192 ± 0.1 |
| SAGGSAMYEVTEEKDPNSDYTTVTITFPNGATVTITYNPKTNTITADVDPAVDPEVAAAAAKAVLSSAGGSA [r15_511_JUSTAS] | 2.39 ± 0.028 | 2.23 ± 0.071 | 1.92 ± 0.067 |
| SAGGSAGGSAPTLELTVTLPDGLRVTVRYDLETDEVTIEVRPLPAPPPPELSEEERKKLAEESAGGSAGGSA [r18_236_TrROS_Hall] | 2.25 ± 0.2 | 1.98 ± 0.12 | 1.24 ± 0.056 |
| SAGGKVKVKLSPEMIEALKKAGIKEGQKEVTIEVKLKDGSVYRVTITYDKKTNKITIKVEKVEKLPPSAGGS [r16_497_TrROS_Hall] | 4.16 ± 0.1 | 3.88 ± 0.32 | 2.58 ± 0.16 |

Source: the supplement of paper PMC12764529
